Patent US7981691B2, “Two helix binders” (General Electric Company, priority 2006, dated 2011)
Positions of bridges follow the written chain, without caps; N, C: chain ends. Non-standard residues stand in square brackets, D forms with d. No end group written: not given here. Aib = CC(C)(N)C(=O)O

Columns and labels:
[1] = target: T1, extracellular domain of the Her2/neu antigen (Fc-Her2) (Homo sapiens, UniProt P04626); experiment: SPR (BIAcore) binding of two helix peptides to immobilized Fc-Her2; conditions: relative binding by SPR
T1 construct: The extracellular domain of the Her2/neu antigen was obtained as a conjugate with the Fc region of human IgG; purchased R&D Systems

[2] = CD spectroscopy of 2-helix scaffolds (secondary structure, helicity); type: physicochemical; conditions: Circular Dichroism
Description: Secondary structure of different 2-helix scaffold was determined by CD analysis. All CD spectra were obtained on an JASCO J-815 CD spectropolarimeter in the wavelength range of 250-185 nm using 1 nm bandwidth, 0.5 nm resolution, 4 seconds averaging time, 3 scan per sample, 0 second delay, and a path length of 1 mm. Spectra were recorded at 20° C., unless otherwise noted, in a thermostated circular cuvette, with peptide concentrations of 15 μM in 13 mM of K2HPO4 buffer at pH8. Results are reported as mean residue ellipticity (MRW).

binding to target molecule Her2 (in words) [1]	Sequence	helicity / population of helix conformers (in words) [2]
unable to bind target molecule	VENKCNKEMRNAYWEIALLPNLNNQXKRAXIRSXYDDPC (VENKCNKEMRNAYWEIALLPNLNNQ[Aib]KRA[Aib]IRS[Aib]YDDPC-NH2; disulfide 5-39 (inferred)) [SEQ. ID. NO. 25]	helicity increases
unable to bind target molecule	VENKCNKXMRNXYWEXALLPNLNNQQKRAFIRSLYDDPC (VENKCNK[Aib]MRN[Aib]YWE[Aib]ALLPNLNNQQKRAFIRSLYDDPC-NH2; disulfide 5-39 (inferred)) [SEQ. ID. NO. 24]	helicity increases
unable to bind target molecule	VENKCNKXMRNXYWEXALLPNLNNQXKRAXIRSXYDDPC (VENKCNK[Aib]MRN[Aib]YWE[Aib]ALLPNLNNQ[Aib]KRA[Aib]IRS[Aib]YDDPC-NH2; disulfide 5-39 (inferred)) [SEQ. ID. NO. 26]	helicity increases
